Paper PMC3553216 (Biochemistry, 2013)
Where two headings read alike, the source gives them in different places.

Experiments:
AUC [1] = assay: AUC
[2] = target: full-length SaPC K442E mutant (Staphylococcus aureus); assay: AUC
[3] = target: full-length SaPC K442E mutant (Staphylococcus aureus); assay: AUC; remark: listed apart in the source
[4] = target: full-length SaPC K442E mutant (Staphylococcus aureus); assay: SEC
[5] = target: full-length SaPC F403A mutant (Staphylococcus aureus); assay: AUC
[6] = target: full-length SaPC F403A mutant (Staphylococcus aureus); assay: AUC; remark: listed apart in the source
[7] = target: full-length SaPC F403A mutant (Staphylococcus aureus); assay: SEC
[8] = target: full-length SaPC R54E mutant (Staphylococcus aureus); assay: AUC
[9] = target: full-length SaPC R54E mutant (Staphylococcus aureus); assay: AUC; remark: listed apart in the source
[10] = target: full-length SaPC R54E mutant (Staphylococcus aureus); assay: SEC
[11] = target: isolated BC domain of SaPC, R54E mutant (Staphylococcus aureus); assay: AUC
AUC [12] = target: the molecule itself; assay: AUC
AUC [13] = target: the molecule itself; assay: AUC; remark: listed apart in the source

For full-length SaPC K442E mutant, the Monomer (%) (AUC [1]) was 10%.

For full-length SaPC F403A mutant, the Monomer (%) (AUC [1]) was 9%.

For full-length SaPC K442E mutant (enzyme), the Dimer (%) [2] was 65%, the Kd [2] was 820 nM and the Kd [3] was 840000 nM. It also gave a stoichiometry N [4] of 2.

full-length SaPC F403A mutant (enzyme) showed a Dimer (%) [5] of 2%, a Kd [5] of 450 nM and a Tetramer (%) [5] of 85%. For the same molecule, the Kd [6] was 11 nM and the stoichiometry N [7] was 4.

For full-length SaPC R54E mutant (enzyme), the Dimer (%) [8] was 0%, the Kd [8] was 530 nM and the Tetramer (%) [8] was 96%. For the same molecule, the Kd [9] was 3 nM and the stoichiometry N [10] was 4.

full-length SaPC R54E mutant showed a Monomer (%) (AUC [1]) of 4%.

Work on “isolated BC domain of SaPC, R54E mutant (domain or fragment)” yielded a Kd [11] of 195000 nM.

B1: wild-type full-length Staphylococcus aureus pyruvate carboxylase (enzyme, UniProt A0A0H3JRU9 1-1150, looked up)
chain: MKQIKKLLVANRGEIAIRIFRAAAELDISTVAIYSNEDKSSLHRYKADESYLVGSDLGPAESYLNIERIIDVAKQANVDAIHPGYGFLSENEQFARRCAEEGIKFIGPHLEHLDMFGDKVKARTTAIKADLPVIPGTDGPIKSYELAKEFAEEAGFPLMIKATSGGGGKGMRIVREESELEDAFHRAKSEAEKSFGNSEVYIERYIDNPKHIEVQVIGDEHGNIVHLFERDCSVQRRHQKVVEVAPSVGLSPTLRQRICDAAIQLMENIKYVNAGTVEFLVSGDEFFFIEVNPRVQVEHTITEMVTGIDIVKTQILVAAGADLFGEEINMPQQKDITTLGYAIQCRITTEDPLNDFMPDTGTIIAYRSSGGFGVRLDAGDGFQGAEISPYYDSLLVKLSTHAISFKQAEEKMVRSLREMRIRGVKTNIPFLINVMKNKKFTSGDYTTKFIEETPELFDIQPSLDRGTKTLEYIGNVTINGFPNVEKRPKPDYELASIPTVSSSKIASFSGTKQLLDEVGPKGVAEWVKKQDDVLLTDTTFRDAHQSLLATRVRTKDMINIASKTADVFKDGFSLEMWGGATFDVAYNFLKENPWERLERLRKAIPNVLFQMLLRASNAVGYKNYPDNVIHKFVQESAKAGIDVFRIFDSLNWVDQMKVANEAVQEAGKISEGTICYTGDILNPERSNIYTLEYYVKLAKELEREGFHILAIKDMAGLLKPKAAYELIGELKSAVDLPIHLHTHDTSGNGLLTYKQAIDAGVDIIDTAVASMSGLTSQPSANSLYYALNGFPRHLRTDIEGMESLSHYWSTVRTYYSDFESDIKSPNTEIYQHEMPGGQYSNLSQQAKSLGLGERFDEVKDMYRRVNFLFGDIVKVTPSSKVVGDMALYMVQNDLDEQSVITDGYKLDFPESVVSFFKGEIGQPVNGFNKDLQAVILKGQEALTARPGEYLEPVDFEKVRELLEEEQQGPVTEQDIISYVLYPKVYEQYIQTRNQYGNLSLLDTPTFFFGMRNGETVEIEIDKGKRLIIKLETISEPDENGNRTIYYAMNGQARRIYIKDENVHTNANVKPKADKSNPSHIGAQMPGSVTEVKVSVGETVKANQPLLITEAMKMETTIQAPFDGVIKQVTVNNGDTIATGDLLIEIEKATD
For B1, the Kd (AUC [12]) was 8 ± 0.6 nM and the Kd (AUC [13]) was 750 ± 60 nM.
